# Measurements: publication doi:10.1101/2024.04.22.590536 (bioRxiv, 2024)
# Where no end group is shown, it is not given here.
# Molecular target: T1, GST-tagged Ifh1 activation domain (AA 703-811) (S. cerevisiae, UniProt P39520 703-811)
# T1 sequence (looked up): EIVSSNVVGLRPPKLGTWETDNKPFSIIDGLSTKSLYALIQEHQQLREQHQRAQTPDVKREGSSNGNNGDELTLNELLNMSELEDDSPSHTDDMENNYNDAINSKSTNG
# Experiment: fluorescence polarisation
binder,measurement,value
"NNNSRNNFNNRRGGRGARKGNNTANATNSANTVQKNRNIDVSNLPSLA (peptide, UniProt P39015 226-273, looked up, also: TAMRA label, position not given here) [TAMRA-labelled Stm1-IDR peptide (AA 226-273)]",Kd,~1400 nM
